Drawing on the supplement of paper PMC12042874, this text covers amyloid nucleation score for 98 substances.

± gives the uncertainty stated by the source.

This series can be described thus: amyloid nucleation score (Sup35N fusion, yeast selection) (log enrichment); library NNK3; higher = more nucleation; inactive = no reads after selection. The gist of the method: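 Peptides of 20 random codons fused to Sup35N were expressed in psi-negative yeast, induced 24 hours with 100 μM copper sulfate, then grown 7 days at 30°C on medium lacking adenine and uracil. Input and output plasmid inserts were Illumina-sequenced. Nucleation score is the DiMSum log enrichment of output over input reads, centred on the mode score of non-aggregating sequences, excluding sequences with under 100 input reads. Random libraries had three technical output replicates.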
Regarding CPNVYIAIPIFS, the amyloid nucleation score is -0.423 ± 0.63.

For SMEIGLGVEIYDVMRFGERM, the amyloid nucleation score result is “inactive”.

In turn, YMGCIYIPYVKFYFKM registered an amyloid nucleation score of 1.26 ± 0.081.

VSMIKRLGHCGVLGGKTYRV: the amyloid nucleation score was -0.671 ± 0.8.

On to EGHLIHEYTQTRFVLEVSVK, for which the amyloid nucleation score result was “inactive”.

On to WIRYTFYQNFRIL, for which the amyloid nucleation score is -0.744 ± 0.8.

For YMSYRSLMNSLTSIL, the amyloid nucleation score result is “inactive”.

CLMSVSAPFHVFALYIQLFC: the amyloid nucleation score entry was “inactive”.

In the case of VCVKPLCFLAHMYGKC, the amyloid nucleation score entry is “inactive”.

SLYRKGRHFGGCSCSIVRFR had an amyloid nucleation score of 0.319 ± 0.78.

As for MVCNGFRDDRVMIVK, the amyloid nucleation score result was “inactive”.

On to VVLYRIGVLSN, for which the amyloid nucleation score entry is “inactive”.

Substance RFWFMDFFSH returned an amyloid nucleation score of 1.89 ± 0.076.

On to QSYVSFYMQVLRSDRTDILR, for which the amyloid nucleation score entry is “inactive”.

For the substance NFFESLMVMSDKASLSVMK, the amyloid nucleation score result was “inactive”.

Take SSLRR: the amyloid nucleation score result was “inactive”.

For the substance NWSYRDGREPHYI, the amyloid nucleation score stood at 1.15 ± 0.12.

As for KDVSMLSTVTRTPRMRRVST, the amyloid nucleation score entry is “inactive”.

GCLEFGVMEFPGEDEFNFLG: the amyloid nucleation score result was “inactive”.

Turning to VLLLFWAPVNAGTVWYLWNR, the amyloid nucleation score entry is “inactive”.

In the case of RNVVAESRKSWGHCVRVTYT, the amyloid nucleation score result was “inactive”.

Turning to YDKVFLPLGWHWPERPMGQT, the amyloid nucleation score entry was “inactive”.

For the substance VRDCTTDTQWERWVETLSPS, the amyloid nucleation score entry was “inactive”.

As for LHSSNCCNEIVMRNRCWRKF, the amyloid nucleation score entry is “inactive”.

Consider FLAYGWWHYKWSGNDTLHSF, for which the amyloid nucleation score result is “inactive”.

For the substance VMIFSCYSAYYPNLISHSRW, the amyloid nucleation score result was “inactive”.

On to YYSLWRSIIVEACRFC, for which the amyloid nucleation score entry was “inactive”.

In turn, YFRANVRLKLEVMQRKKSPS yielded an amyloid nucleation score of 2.28 ± 0.075.

PECVVKSTN: the amyloid nucleation score entry is “inactive”.

RVCLL had an amyloid nucleation score of -0.539 ± 1.4.

Turning to IESKAWISVAGARFYSLGVG, the amyloid nucleation score entry is “inactive”.

For the substance ACCIAGL, the amyloid nucleation score entry was “inactive”.

As to RREPQCYYWGAYCSVAASPA, the amyloid nucleation score result is “inactive”.

For the substance SEGFLAWCLRDLRSGRVAR, the amyloid nucleation score result is “inactive”.

With CTPFTLECW, the amyloid nucleation score was -0.193 ± 1.1.

As to IDMILC, the amyloid nucleation score entry is “inactive”.

Consider RAHPALVWMIARTKSSSICL, for which the amyloid nucleation score result was “inactive”.

Regarding VNYSLLRVNMFKYGSSYPIP, the amyloid nucleation score result is “inactive”.

In turn, IYAGS came in with an amyloid nucleation score of -0.633 ± 0.96.

In the case of NLPHIYRDHRRFWVGFSIMT, the amyloid nucleation score was determined as 1.12 ± 0.17.

With DVLTVMSQLVVMKTL, the amyloid nucleation score entry was “inactive”.

On to FGWLTPDMKFLCTYKQRISG, for which the amyloid nucleation score entry was “inactive”.

As to SVAVRWKAYVMVLSEHSPRG, the amyloid nucleation score entry is “inactive”.

KRDIVFLCGDWVDSFTCSGG registered an amyloid nucleation score of 1.79 ± 0.075.

As for YYTSYIAGNLAFNTSKFRKM, the amyloid nucleation score is -0.347 ± 0.7.

Consider KWKFCSGYAELMLP, for which the amyloid nucleation score result was “inactive”.

LSFDVKASWV: the amyloid nucleation score result was “inactive”.

AYMRHFF: the amyloid nucleation score entry was “inactive”.

Substance CLFCSALEL had an amyloid nucleation score of 1.99 ± 0.072.

For the substance PRSANSARCVTISSNMEHSR, the amyloid nucleation score result is “inactive”.

AVSFLWHTYVLGGLLKLFGG: the amyloid nucleation score result was “inactive”.

For the substance FWPMFSVVVRRRKFHSTPVH, the amyloid nucleation score entry is “inactive”.

Take AEWLSCLRWIGK: the amyloid nucleation score result was “inactive”.

As for KVRNPWMRIDTVCRFFILVV, the amyloid nucleation score result is “inactive”.

As for GSVQTHFLDYGCSPNMDMLV, the amyloid nucleation score entry was “inactive”.

GGDSPNDARRFFNFHIYNIW: the amyloid nucleation score was 2.05 ± 0.08.

VFLSCSCRWMVYGYNLTADC: the amyloid nucleation score result was “inactive”.

On to PTGLGTAYQLNAWTASFG, for which the amyloid nucleation score result is “inactive”.

FDSYRVYM: the amyloid nucleation score result was “inactive”.

Turning to TYVGV, the amyloid nucleation score entry was “inactive”.

Turning to IFTDLVA, the amyloid nucleation score result is “inactive”.

FCFDEEDVLRTGCNGDSYPG: the amyloid nucleation score entry was “inactive”.

Turning to FYLGLAYVLSWVGFCVIGVS, the amyloid nucleation score result was “inactive”.

Consider LMDPNGLVQGLFYMELLT, for which the amyloid nucleation score entry was “inactive”.

Regarding YCSIMYVCNKILFNAAKARL, the amyloid nucleation score entry was “inactive”.

In the case of CAPLSVVWNSRGFM, the amyloid nucleation score entry is “inactive”.

Consider IRVMNEMYLFLNRVYFAFSY, for which the amyloid nucleation score result was “inactive”.

On to IMLGRANSIYMH, for which the amyloid nucleation score entry was “inactive”.

Turning to SFFESCF, the amyloid nucleation score entry is “inactive”.

On to VINRST, for which the amyloid nucleation score amounted to 0.979 ± 0.11.

For NRMNKSEDGTSKCFESDRWG, the amyloid nucleation score entry is “inactive”.

Regarding VTTIVYDSYCPLPRCWTWVG, the amyloid nucleation score entry is “inactive”.

In the case of PREARQHRVRRTGFSVVFVS, the amyloid nucleation score result was “inactive”.

Turning to RLAKSMH, the amyloid nucleation score entry was “inactive”.

With HIRFWSDNRT, the amyloid nucleation score worked out at 0.468 ± 0.2.

Regarding AYAQSYND, the amyloid nucleation score entry was “inactive”.

As to PYGNSELYSERGERAHCNLG, the amyloid nucleation score entry is “inactive”.

Consider RCLLYTAY, for which the amyloid nucleation score entry was “inactive”.

Substance QCRQVIENNRVLFVAIKWEN gave an amyloid nucleation score of 0.57 ± 0.58.

Turning to LCNFKDSADNWVSVGGNVGE, the amyloid nucleation score result was “inactive”.

Consider GRRSNCINSVNSGTRGRRRA, for which the amyloid nucleation score entry is “inactive”.

Substance NFSFGGLIISGCIMRNWGLQ gave an amyloid nucleation score of 2.92 ± 0.077.

For SSARYPAGLIVLHWLGCLKA, the amyloid nucleation score entry is “inactive”.

Take LSQIEGWKCIGWVHYMVDSI: the amyloid nucleation score entry is “inactive”.

As to KGMFLVMSRLCPFISWSRSQ, the amyloid nucleation score result is “inactive”.

As to VSFEFEIRESSGISCM, the amyloid nucleation score result was “inactive”.

FYTFYSHLNELLHL: the amyloid nucleation score is -0.009 ± 0.66.

Consider FSGRFHMENTMYHTIYKIKS, for which the amyloid nucleation score entry was “inactive”.

As for SDRYDCRDGSCFNRKVRYSL, the amyloid nucleation score result is “inactive”.

For the substance TSLSRHTIPYNHVLYSTWW, the amyloid nucleation score result was “inactive”.

As for NSYEEWSKWHFSNWSGFSGC, the amyloid nucleation score result is “inactive”.

With SESQYRRWYTLAFVYMRHLN, the amyloid nucleation score entry is “inactive”.

Turning to WHSMSCFSPKLGWDQFPVLR, the amyloid nucleation score result is “inactive”.

DILTDQS: the amyloid nucleation score entry is “inactive”.

The substance VFSFDMLHRLG displayed an amyloid nucleation score of 1.53 ± 0.099.

As for HFARDPLSERSKFPLIF, the amyloid nucleation score came to 0.623 ± 0.15.

MLLGRLSLEVKFEWIFPRIG yielded an amyloid nucleation score of 0.687 ± 0.14.

In the case of YMIATGTVGWNRLTLKCVVV, the amyloid nucleation score result is “inactive”.
